In patent publication US20210380703A1 (RIGEL PHARMACEUTICALS, published 2021):
Positions count from the first letter of the chain named.

B1: 366_B08 (antibody, V domains shown)
VH: EVQLLESGGGLVQPGGSLRLSCAASGFTFDSYGMNWVRQAPGKGLEWVSNINYNGGYKGYADSVKGRFTISRDNSKNTLYLQMNSLRAEDTAVYYCARSANWHDTHLDYWGQGTLVTVSS
VL: DIQMTQSPSSLSASVGDRVTITCRASQSIVSYLNWYQQKPGKAPKLLIYAATSRHSGVPSRFSGSGSGTDFTLTISSLQPEDFATYYCQQSYDNPLTFGGGTKVEIK
notes: VH/VL only
B2: 366_G04 (antibody, V domains shown)
VH: B1 VH with D30S, G33S, N50G, G55S, K58T, G59S, H106A
VL: B1 VL with V30I, S31T, H55A, Y92D, N94T
notes: VH/VL only
B3: 367_C08 (antibody, V domains shown)
VH: B1 VH with G33S, N35H, S49A, N50G, K58T, G59S, S99G, N101T
VL: B1 VL with V30L, S31T, R54L, H55A, Y92D, D93S
notes: VH/VL only
B4: 367_B03 (antibody, V domains shown)
VH: B1 VH with D30S, S49A, N50G, G59S, H106A
VL: B1 VL with V30L, S31T, R54L, H55A, D93N, N94L
notes: VH/VL only
B5: 367_F09 (antibody, V domains shown)
VH: B1 VH with G33S, N35H, S49A, N50G, K58T, G59S, S99G, N101T
VL: B1 VL with V30L, S31T, R54L, H55A, Y92D, D93S
notes: VH/VL only
B6: 366_F07 (antibody, V domains shown)
VH: B1 VH with D30S, S31D, G33S, S49A, N50G, G55S, K58T, G59S
VL: B1 VL with V30I, S31T, H55A, D93E, N94T
notes: VH/VL only
B7: 366_G09 (antibody, V domains shown)
VH: B1 VH with S31D, G33S, S49A, N50S, G55S, K58T, S99G, N101T
VL: B1 VL with V30L, L33V, L47V, H55A, N94L
notes: VH/VL only
B8: 368_G03 (antibody, V domains shown)
VH: B1 VH with D30S, G33S, N50G, G55S, K58T, G59S, S99G, N101T, H106A
VL: B1 VL with V30L, L47V, H55A, N94T
notes: VH/VL only
B9: 368_B02 (antibody, V domains shown)
VH: B1 VH with D30S, N50G, G55S, G59S, S99G, N101T
VL: not shown
notes: VH/VL only
B10: 367_H05 (antibody, V domains shown)
VH: B1 VH with D30S, N35H, S49A, N50S, G55S, G59S, S99G, N101T
VL: not shown
notes: VH/VL only
B11: 366_B10 (antibody, V domains shown)
VH: B1 VH with D30S, N50G, G55S, K58T, G59S, H106A
VL: B1 VL with V30I, H55A
notes: VH/VL only
B12: 367_E12 (antibody, V domains shown)
VH: B1 VH with D30S, N35H, S49A, N50S, K58T, G59S, S99G, N101T
VL: B1 VL with V30L, S31T, L33V, T52S, R54L, H55Q, D93N, N94S
notes: VH/VL only
B13: 367_A04 (antibody, V domains shown)
VH: B1 VH with D30S, G33S, G55S, G59S, H106A
VL: B1 VL with V30I, S31T, H55A, Y92D, N94S
notes: VH/VL only
B14: 366_H06 (antibody, V domains shown)
VH: B1 VH with D30S, N50S, K58T, H106A
VL: B1 VL with V30L, A51T, H55A, N94T
notes: VH/VL only
B15: 367_H10 (antibody, V domains shown)
VH: B1 VH with D30S, S49A, N50S, K58T, S99G, N101T
VL: B1 VL with V30L, L33V, L47V, H55A, D93E, N94L
notes: VH/VL only
B16: 366_F04 (antibody, V domains shown)
VH: B1 VH with D30S, S31D, N50G, K58T, G59S, H106A
VL: B1 VL with V30L, L33V, L47V, A51T, D93E, N94S
notes: VH/VL only
B17: 366_H08 (antibody, V domains shown)
VH: B1 VH with D30S, S31D, S49A, N50S, G55S, K58T, G59S
VL: B1 VL with V30L, L33V, D93N
notes: VH/VL only
B18: 367_E07 (antibody, V domains shown)
VH: B1 VH with D30S, S31D, G33S, N50S, S99G, N101T
VL: B1 VL with V30L, L33V, L47V, H55A, D93E
notes: VH/VL only
B19: 367_B06 (antibody, V domains shown)
VH: B1 VH with D30S, G33S, S49A, K58T, S99G, N101T
VL: B1 VL with V30I, L33V, L47V, R54L, D93N, N94S
notes: VH/VL only
B20: 368_C11 (antibody, V domains shown)
VH: B1 VH with D30S, S31D, G33S, N50S, G55S, G59S, S99G, N101T
VL: B1 VL with V30I, H55A
notes: VH/VL only
B21: 366_F08 (antibody, V domains shown)
VH: B1 VH with D30S, N50S, K58T, G59S, S99G, N101T
VL: not shown
notes: VH/VL only
B22: 366_B12 (antibody, V domains shown)
VH: B1 VH with D30S, G33S, S49A, N50G, G55S, H106A
VL: B1 VL with V30L, S31T, L33V, H55A
notes: VH/VL only
B23: 368_G10 (antibody, V domains shown)
VH: B1 VH with D30S, G33S, N35H, N50S, K58T, G59S, S99G, N101T
VL: B1 VL with L33V, L47V, H55A, N94T
notes: VH/VL only
B24: 366_D08 (antibody, V domains shown)
VH: B1 VH with D30S, N35H, G59S, S99G, N101T
VL: B1 VL with V30L, L33V, L47V, R54L, H55A, D93E
notes: VH/VL only
B25: 367_B07 (antibody, V domains shown)
VH: B1 VH with D30S, S31D, G33S, S49A, N50G, G55S, K58T
VL: B1 VL with V30I, L33V, R54L, H55A, D93N, N94L
notes: VH/VL only
B26: 368_D12 (antibody, V domains shown)
VH: B1 VH with D30S, N50S, K58T, G59S, S99G, N101T
VL: B1 VL with V30L, L33V, L47V, H55A, D93N
notes: VH/VL only
B27: 366_F05 (antibody, V domains shown)
VH: B1 VH with D30S, G33S, S49A, G55S, G59S
VL: B1 VL with V30L, S31T, H55A, Y92D, D93N, N94T
notes: VH/VL only
B28: 367_A02 (antibody, V domains shown)
VH: B1 VH with N50S, G55S, S99G, N101T
VL: B1 VL with V30I, A51V, H55A, N94T
notes: VH/VL only
B29: 368_D02 (antibody, V domains shown)
VH: B1 VH with S31D, K58T, S99G, N101T
VL: B1 VL with V30S, S31T, L47V, N94T
notes: VH/VL only
B30: 368_F06 (antibody, V domains shown)
VH: B1 VH with S31D, G33S, N35H, S49A, G55S, K58T, S99G, N101T
VL: B1 VL with V30L, L47V, A51T, H55A, D93E
notes: VH/VL only
B31: 366_D04 (antibody, V domains shown)
VH: B1 VH with D30S, G33S, N50G, K58T, G59S, H106A
VL: B1 VL with V30S, L33V, A51T, H55A, D93E, N94T
notes: VH/VL only
B32: 367_B08 (antibody, V domains shown)
VH: B1 VH with D30S, S31D, N50G, H106A
VL: B1 VL with V30L, S31T, L47V, H55A
notes: VH/VL only
B33: 367_D05 (antibody, V domains shown)
VH: B1 VH with D30S, S31D, G33S, N50S, G59S, S99G, N101T
VL: B1 VL with V30I, L33V, L47V, R54L, H55A, N94S
notes: VH/VL only
B34: 367_D09 (antibody, V domains shown)
VH: B1 VH with S49A, N50S, G59S, S99G, N101T
VL: B1 VL with V30L, S31T, R54L, H55A
notes: VH/VL only
B35: 367_A05 (antibody, V domains shown)
VH: B1 VH with D30S, S31D, N50S, H106A
VL: B1 VL with V30L, L47V, A51V, H55A, N94S
notes: VH/VL only

Tests used:
Goat anti-Human Kappa = target: T1, Goat anti-Human Kappa; assay: ELISA; positive control
T1 construct: Positive control; also called biotinylated goat anti-human kappa light chain
Procedure: (§1) The binding of ACVR2A-specific monoclonal antibodies to human ACVR2A, mouse ACVR2A, biotinylated goat anti-human kappa light chain (positive control) and human Fc (negative control) were determined by ELISA.

Human ACVR2A = target: T2, Human ACVR2A (human, UniProt P27037 20-135, limits assumed); assay: ELISA
T2 construct: also called activin receptor, type II A
Procedure: as §1

Mouse ACVR2A = Mouse ACVR2A (mouse, UniProt P27038 20-135, limits assumed); assay: ELISA
Procedure: as §1
Also: test concentration or dose not given here.

Mouse ACVR2A, sequence (P27038 20-135 limits assumed): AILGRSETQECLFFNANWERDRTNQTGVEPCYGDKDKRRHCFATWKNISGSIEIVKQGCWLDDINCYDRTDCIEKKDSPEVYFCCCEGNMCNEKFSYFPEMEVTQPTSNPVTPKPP
T2 sequence (P27037 20-135 limits assumed): as the sequence (P27038 20-135 limits assumed) above, with R20K, I73V counted along it

Binder	optical density (Goat anti-Human Kappa) [OD]	optical density (Human ACVR2A) [OD]	optical density (Mouse ACVR2A) [OD]
B1	3.05	2.15	2.38
B2	3.29	1.85	2.18
B3	3.05	1.12	1.22
B4	3.44	2.48	2.66
B5	3.46	1.79	1.82
B6	3.47	2.39	2.53
B7	3.44	1.85	2.04
B8	3.39	2.73	2.75
B9	3.61	2.08	2.24
B10	3.59	2.44	2.7
B11	3.06	2.33	2.44
B12	3.71	2.69	2.91
B13	3.3	2.14	2.2
B14	3.39	2.29	2.59
B15	3.55	2.58	2.35
B16	3.37	1.73	1.91
B17	3.55	2.59	2.77
B18	3.21	1.94	2.06

Binder	optical density (Goat anti-Human Kappa) [OD]	optical density (Human ACVR2A) [OD]	optical density (Mouse ACVR2A) [OD]
B19	3.02	1.82	1.89
B20	3.56	2.03	2.21
B21	3.47	1.86	2
B22	3.44	3.24	2.99
B23	3.45	2.06	2.28
B24	3.65	2.17	2.46
B25	3.34	1.42	1.49
B26	3.57	2.25	2.28
B27	3.25	2.19	2.67
B28	3.58	2.23	2.42
B29	3.52	1.93	2.26
B30	3.31	1.6	1.68
B31	3.46	2.08	2.12
B32	3.03	2.13	2.25
B33	3.34	1.26	1.37
B34	3.37	2.15	2.04
B35	3.38	2.22	2.38
